Experimental data taken from PMC5790001.

target: CCR5 (human (endogenous in PM1 cells and MDM)) (UniProt P51681)

Point of comparison: “CCL5 A13F (from UniProt P13501 24-91) (ligand)”, other 92 pM. Against it:
- 5p12 E66S (from UniProt P13501 24-91) (ligand) — 5.1-fold lower, 18 pM
- 5p12 F12Y/A13V (from UniProt P13501 24-91) (ligand) — 3.1-fold lower, 30 pM
- 5p12 F12Y/A13V/Y27W/F28W/E66S (CCL5 5p12 5 m) (L. jensenii) (from UniProt P13501 24-91) (ligand) — 17-fold lower, 5.5 pM
- 5p12 Y27W (from UniProt P13501 24-91) (ligand) — 5.4-fold lower, 17 pM
- 5p12 Y27W/F28W (from UniProt P13501 24-91) (ligand) — 11-fold lower, 8.2 pM
- 5p12 Y27W/F28W/E66S (from UniProt P13501 24-91) (ligand) — 12-fold lower, 7.7 pM
- 6p4 F12Y/A13V/Y27W/F28W/E66S (CCL5 6p4 5 m) (L. jensenii) (from UniProt P13501 24-91) (ligand) — 20-fold lower, 4.7 pM
- 6p4-RANTES (L. jensenii) (from UniProt P13501 24-91) (ligand) — 3.1-fold lower, 30 pM
- C1C5 27W/28 W (from UniProt P13501 24-91) (ligand) — 9.1-fold higher, 833 pM
- C1C5 E66S (from UniProt P13501 24-91) (ligand) — 17-fold higher, 1600 pM
- C1C5 Y27W (from UniProt P13501 24-91) (ligand) — 40-fold higher, 3700 pM
- C1C5 Y27W/F28W/E66S (from UniProt P13501 24-91) (ligand) — 7-fold higher, 640 pM
- CCL5 A13M (from UniProt P13501 24-91) (ligand) — 2.8-fold higher, 256 pM
- CCL5 A13P (from UniProt P13501 24-91) (ligand) — higher, > 1000 pM
- CCL5 A13V (from UniProt P13501 24-91) (ligand) — within 1.5-fold, 86 pM
- CCL5 A13W (from UniProt P13501 24-91) (ligand) — 1.8-fold higher, 169 pM
- CCL5 A13Y (from UniProt P13501 24-91) (ligand) — within 1.5-fold, 78 pM
- CCL5 E66S (from UniProt P13501 24-91) (ligand) — 2.1-fold higher, 190 pM
- CCL5 F12P (from UniProt P13501 24-91) (ligand) — higher, > 1000 pM
- CCL5 F12W (from UniProt P13501 24-91) (ligand) — higher, > 6500 pM
- CCL5 F12Y/A13V (from UniProt P13501 24-91) (ligand) — 1.9-fold higher, 179 pM
- CCL5 F12Y/A13V/Y27W/F28W (CCL5 4 m) (from UniProt P13501 24-91) (ligand) — within 1.5-fold, 115 pM
- CCL5 F12Y/A13V/Y27W/F28W/E66S (CCL5 5 m) (L. jensenii) (from UniProt P13501 24-91) (ligand) — 2.7-fold lower, 34 pM
- CCL5 F28W (from UniProt P13501 24-91) (ligand) — 1.8-fold higher, 162 pM
- CCL5 Y27W (from UniProt P13501 24-91) (ligand) — 2.8-fold higher, 255 pM
- CCL5 Y27W/F28W (from UniProt P13501 24-91) (ligand) — within 1.5-fold, 95 pM
- CCL5 Y27W/F28W/E66S (from UniProt P13501 24-91) (ligand) — 2-fold lower, 46 pM

target: CCR5 (human (endogenous in PM1 cells and MDM)) (UniProt P51681); remark: another data set of the same source

Point of comparison: “5p12-RANTES (E. coli) (from UniProt P13501 24-91) (ligand)”, other 21 pM. Against it:
- 6p4-RANTES (E. coli) (from UniProt P13501 24-91) (ligand) — 1.7-fold higher, 35 pM
- CCL5 5p12 5 m (E. coli) (from UniProt P13501 24-91) (ligand) — 3.4-fold lower, 6.1 pM
- CCL5 6p4 5 m (E. coli) (from UniProt P13501 24-91) (ligand) — 2.7-fold lower, 7.9 pM

“wt CCL5 (E. coli) (from UniProt P13501 24-91) (ligand)” was tested, and the IC50 (pM) of HIV-1BaL inhibition, acute infection assay in PM1 cells (p24), protein purified from E. coli; blocks HIV-1 entry through CCR5 was 810 pM.

target: CCR5 (human (endogenous in PM1 cells and MDM)) (UniProt P51681); remark: another data set of the same source

Work on “CCL5 5p12 5 m (E. coli) (from UniProt P13501 24-91) (ligand)” yielded an IC50 of inhibition of HIV-1BaL infection in human monocyte-derived macrophages (MDM); blocks HIV-1 entry through CCR5 of 14.2 pM.

With “CCL5 5p12 5 m (E. coli) (from UniProt P13501 24-91) (ligand)” the IC50 of inhibition of the primary R5 HIV-1 strain 98IN007 (clade C), acute infection assay in PM1 cells; blocks HIV-1 entry through CCR5 was 7.6 pM.

“CCL5 5p12 5 m (E. coli) (from UniProt P13501 24-91) (ligand)” was tested, and the IC50 of inhibition of the primary R5 HIV-1 strain 5513 (clade B), acute infection assay in PM1 cells; blocks HIV-1 entry through CCR5 was 15.5 pM.

target: human CCR5 on CHO-CD4-CCR5 cells (human) (UniProt P51681)

Point of comparison: “CCL5 6p4 5 m (E. coli) (from UniProt P13501 24-91) (ligand)”, percent of surface CCR5 internalized, flow cytometry (mAb 3A9) of CHO-CD4-CCR5 cells treated with 100 nM ligand, 4 h, 37 °C 70%. Against it:
- wt CCL5 (E. coli) (from UniProt P13501 24-91) (ligand) — lower, 55%

target: CCR5 (human (endogenous in PM1 cells and MDM)) (UniProt P51681); remark: another data set of the same source

Point of comparison: “CCL5 5p12 5 m (total chemical synthesis) (from UniProt P13501 24-91) (ligand)”, IC50 of HIV-1BaL inhibition, acute infection assay, protein from total chemical synthesis; blocks HIV-1 entry through CCR5 3.9 pM. Against it:
- CCL5 6p4 5 m (total chemical synthesis) (from UniProt P13501 24-91) (ligand) — the same, 3.9 pM
